Test results: article PMC9966149, “The Dynamic Interactions of a Multitargeting Domain in Ameloblastin Protein with Amelogenin and Membrane” (International Journal of Molecular Sciences, 2023)

B1: xAB2N, extended AB2 N-terminus (peptide, UniProt O55189 51-86, looked up)
peptide: TMRQLGSLQGLNALSQYSRLGFGKALNSLWLHGLLP
notes: source: synthetic peptide (Biomer Technologies)
B2: AB2N, the first 20 amino acids of the AB2 sequence (peptide, UniProt O55189 67-86, looked up)
peptide: YSRLGFGKALNSLWLHGLLP
notes: Mouse ameloblastin (Ambn), the first 20 residues of AB2; residues 3-20 of AB2 are stated to be residues 69-86 of mouse Ambn, so the peptide is 67-86; also called AB2 N-terminus; source: synthetic peptide (Biomer Technologies)
B3: tryptophan-free recombinant porcine amelogenin (rP172-W25Y/W45Y/W161Y) (natural protein)
chain: MPLPPHPGHPGYINFSYEVLTPLKYYQNMIRHPYTSYGYEPMGGYLHHQIIPVVSQQTPQSHALQPHHHIPMVPAQQPGIPQQPMMPLPGQHSMTPTQHHQPNLPLPAQQPFQPQPVQPQPHQPLQPQSPMHPIQPLLPQPPLPPMFSMQSLLPDLPLEAYPATDKTKREEVD

Columns and labels:
[1] = target: T1, tryptophan-free recombinant porcine amelogenin (rP172-W25Y/W45Y/W161Y) (porcine, UniProt P45561 17-189, W25Y | W45Y | W161Y); assay: other fluorescence titration; intrinsic tryptophan fluorescence (excitation 295 nm, peak wavelength); 8 uM tryptophan-containing peptide before and after 40 uM rP172-W0, no LUVs; 10 mM Tris-HCl, 50 mM NaCl, final pH 7.4; settings: both partners purified
T1 construct: all three tryptophans changed to tyrosine; also called rP172-W0; recombinant Amel
T1 sequence (looked up): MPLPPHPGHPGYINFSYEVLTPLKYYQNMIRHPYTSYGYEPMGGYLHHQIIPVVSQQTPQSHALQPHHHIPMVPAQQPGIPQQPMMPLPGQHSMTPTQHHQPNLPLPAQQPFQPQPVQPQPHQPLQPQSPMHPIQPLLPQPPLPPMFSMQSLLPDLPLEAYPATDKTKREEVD

[2] = target: spin-labeled xAB2N and AB2 (all residues); assay: EPR (continuous-wave, site-directed spin labelling); 15 uM spin-labeled peptide in 50 mM Tris, pH 7.6, 50 mM NaCl; rP172-W0 added to 15 uM, then to 75 uM; all in solution

binding result [1] | difference between inverse central linewidths (1/LW) of EPR spectra with and without Amel [2] [G.^-1] | Binder
binds | – | B1
binds | – | B2
– | 0.16 to 0.35 | B3
